In patent publication US20240132578A1:

How the values were obtained:
Test in all cases: cell-based or functional assay
[1] = biological target: HIV-1 MGRM-AG-002 Env (pseudovirus) (HIV-1)
[2] = biological target: HIV-1 Env of isolate VLGCA1 (pseudovirus) (HIV-1)
[3] = biological target: HIV-1 envelope glycoprotein (Env) of isolate LAVI_C3 (HIV-1)
[4] = biological target: HIV-1 Env of isolate MGRM-Chronic-B-008, clade B (HIV-1)
[5] = biological target: HIV-1 Env of isolate 92TH021 (CRF01_AE) (HIV-1)
[6] = biological target: HIV-1 MGRM-AG-012 Env (pseudovirus) (HIV-1)
[7] = biological target: HIV-1 92TH021 Env (HIV-1)
[8] = biological target: HIV-1 Env of isolate MGRM-G-027 (subtype G) (HIV-1)
[9] = biological target: HIV-1 Env of pseudovirus MGRM-F1-010 (clade F) (HIV-1)
[10] = biological target: HIV-1 Env of pseudovirus MGRM-G-016 (HIV-1)
[11] = biological target: HIV-1 envelope glycoprotein (Env) of isolate MGRM-C-017 (HIV-1)
[12] = biological target: HIV-1 Env of isolate 93TH305, clade B (HIV-1)
[13] = biological target: HIV-1 envelope glycoprotein (Env) of isolate MG RM-A-005, subtype A (HIV-1)
[14] = biological target: HIV-1 envelope glycoprotein (Env) of isolate 92TH021, subtype AE (HIV-1)
[15] = biological target: HIV-1 envelope glycoprotein (Env) of isolate MGRM-AE-003, subtype AE (HIV-1)
[16] = biological target: HIV-1 envelope glycoprotein (Env) of isolate MG RM-A-013, subtype A (HIV-1)
[17] = biological target: HIV-1 envelope glycoprotein (Env) of isolate TRJO4551.58, on pseudovirus (HIV-1)
[18] = biological target: HIV-1 envelope glycoprotein (Env) of isolate MG RM-A-008, subtype A (HIV-1)
[19] = biological target: HIV-1 envelope glycoprotein (Env) of isolate 92UG031, subtype A (HIV-1)
[20] = biological target: HIV-1 Env of isolate MGRM-AG-005 (pseudovirus) (HIV-1)
[21] = biological target: HIV-1 MGRM-D-001 envelope protein (Env) on pseudovirus (HIV-1)
[22] = biological target: HIV-1 JR-CSF Env E466A (HIV-1 (isolate JR-CSF)) (UniProt P20871)
[23] = biological target: HIV-1 JR-CSF Env I414A (HIV-1 (isolate JR-CSF)) (UniProt P20871)
[24] = biological target: HIV-1 Env of isolate MG RM-A-006 (pseudovirus) (HIV-1)
[25] = biological target: HIV-1 Env of pseudovirus isolate JR-FL (clade B) (HIV-1)
[26] = biological target: HIV-1 Env of isolate MG RM-A-014 (pseudovirus) (HIV-1)

4980_N08 (PGT-143) (antibody), sequence (VH): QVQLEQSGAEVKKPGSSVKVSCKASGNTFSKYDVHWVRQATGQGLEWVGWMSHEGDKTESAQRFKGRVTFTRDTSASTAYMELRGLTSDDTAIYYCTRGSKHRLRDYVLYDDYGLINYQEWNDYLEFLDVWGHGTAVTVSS
4980_N08 (PGT-143) (antibody), sequence (VL): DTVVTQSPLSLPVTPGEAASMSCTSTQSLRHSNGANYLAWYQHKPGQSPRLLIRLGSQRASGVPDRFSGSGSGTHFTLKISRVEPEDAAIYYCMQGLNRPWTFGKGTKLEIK
4970_K22 (PGT-144) (antibody), sequence (VH): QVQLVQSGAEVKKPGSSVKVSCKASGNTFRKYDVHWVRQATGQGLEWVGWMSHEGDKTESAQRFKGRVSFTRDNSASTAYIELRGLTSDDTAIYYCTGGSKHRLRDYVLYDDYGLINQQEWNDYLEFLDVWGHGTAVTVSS
4970_K22 (PGT-144) (antibody), sequence (VL): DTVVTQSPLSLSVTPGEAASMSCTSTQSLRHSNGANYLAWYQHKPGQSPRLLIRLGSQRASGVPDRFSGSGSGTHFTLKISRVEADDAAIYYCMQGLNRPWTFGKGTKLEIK
4993_K13 (PGT-141) (antibody), sequence (VH): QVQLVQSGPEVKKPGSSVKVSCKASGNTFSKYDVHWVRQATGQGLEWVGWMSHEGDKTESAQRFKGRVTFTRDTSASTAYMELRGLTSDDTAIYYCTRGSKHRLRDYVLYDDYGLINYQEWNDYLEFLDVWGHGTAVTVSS
4993_K13 (PGT-141) (antibody), sequence (VL): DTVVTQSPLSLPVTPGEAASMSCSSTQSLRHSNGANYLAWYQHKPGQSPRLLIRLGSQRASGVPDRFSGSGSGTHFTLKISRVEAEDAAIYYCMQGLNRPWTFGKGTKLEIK
4995_E20 (PGT-142) (antibody), sequence (VH): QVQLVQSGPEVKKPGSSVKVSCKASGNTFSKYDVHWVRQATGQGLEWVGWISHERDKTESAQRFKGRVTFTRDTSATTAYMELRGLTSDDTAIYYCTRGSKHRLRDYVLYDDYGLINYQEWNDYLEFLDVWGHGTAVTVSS

Row | Substance | IC50, pseudovirus neutralization [7] | IC50 (µg/mL), pseudovirus neutralization [8] | IC50, pseudovirus neutralization [13] | IC50, pseudovirus neutralization [14] | IC50, pseudovirus neutralization [15] | IC50, pseudovirus neutralization [16] | IC50, pseudovirus neutralization [17] | IC50, pseudovirus neutralization [18] | IC50, pseudovirus neutralization [19] | IC50 (µg/mL), single-round pseudovirus neutralization [24] | IC50, pseudovirus neutralization [25] | IC50 (µg/mL), single-round pseudovirus neutralization [2] | IC50 (µg/mL), single-round pseudovirus neutralization [26] | further results
1 | 1496_C09 (PG9) (TCN-109) (antibody) | 0.103 µg/mL | 0.007 µg/mL |  |  |  |  |  |  |  |  |  |  |  | IC50 (µg/ml), pseudovirus neutralization [1]: 0.04 µg/mL; IC50 (µg/mL), pseudovirus neutralization [2]: 0.069 µg/mL; IC50 (µg/ml), pseudovirus neutralization [3]: 1.45 µg/mL; IC50 (µg/ml), pseudovirus neutralization [4]: 6.66 µg/mL; IC90 (neutralization of pseudovirus) [5]: 1.99 µg/mL; IC50 (µg/ml), pseudovirus neutralization [6]: 1.37 µg/mL; IC50 [9]: 0.03 µg/mL; IC50 (µg/ml), pseudovirus neutralization [10]: 0.4 µg/mL; IC50 (µg/ml), pseudovirus neutralization [11]: 1.52 µg/mL; IC50 (µg/ml), pseudovirus neutralization [12]: 2.08 µg/mL
2 | 4838_L06 (PGT-121) (antibody) | > 10 µg/mL |  | > 50 µg/mL | > 50 µg/mL | > 50 µg/mL | 0.387 µg/mL | 7.09 µg/mL | > 50 µg/mL | > 50 µg/mL |  |  |  |  | 
3 | 4858_P08 (PGT-123) (antibody) | > 10 µg/mL |  | > 50 µg/mL | > 50 µg/mL | > 50 µg/mL | 0.565 µg/mL | 16.9 µg/mL | > 50 µg/mL | > 50 µg/mL |  |  |  |  | IC50 (µg/mL), pseudovirus neutralization [20]: 0.149 µg/mL; IC50 (ug/mL), pseudovirus neutralization [21]: 0.215 µg/mL; Fold IC50 increase relative to wild-type (pseudovirus neutralization) [22]: 0.6 fold; Fold IC50 increase relative to wild-type (pseudovirus neutralization) [23]: 0.3 fold
4 | 4877_D15 (PGT-122) (antibody) | > 10 µg/mL |  | > 50 µg/mL | > 50 µg/mL | > 50 µg/mL | 2.47 µg/mL | > 50 µg/mL | > 50 µg/mL | > 50 µg/mL |  |  |  |  | IC50 (µg/mL), pseudovirus neutralization [20]: 33.9 µg/mL; IC50 (ug/mL), pseudovirus neutralization [21]: 0.867 µg/mL
5 | 4970_K22 (PGT-144) (antibody) |  | > 50 µg/mL |  |  |  |  |  |  |  | > 50 µg/mL | > 50 µg/mL | > 50 µg/mL | > 50 µg/mL | 
6 | 4980_N08 (PGT-143) (antibody) |  | > 50 µg/mL |  |  |  |  |  |  |  | > 50 µg/mL | > 50 µg/mL | 17.4 µg/mL | 1.07 µg/mL | 
7 | 4993_K13 (PGT-141) (antibody) |  | > 50 µg/mL |  |  |  |  |  |  |  | > 50 µg/mL | > 50 µg/mL | 2.07 µg/mL | 0.628 µg/mL | 
8 | 4995_E20 (PGT-142) (antibody) |  | > 50 µg/mL |  |  |  |  |  |  |  | > 50 µg/mL | > 50 µg/mL | 2.75 µg/mL | 0.367 µg/mL | 
